Assay [1] concerns the target human fibronectin (purified; plasma fibronectin used in the ELISA assays; purified Fibronectin protein from BIOPUR AG in Biacore) (human) (UniProt P02751). The assay is described as follows: Biacore 3000, 7A8 captured on anti-mouse antibody, fibronectin injected at 20 nM-100 nM, 1:1 Langmuir fit.
Assay [2] has the same target. The assay is described as follows: SPR, Biacore 3000, antibody captured on anti-mouse antibody on CM-5 chip, fibronectin in solution, 1:1 Langmuir fit, two experiments; lower end of the range from the two independent experiments; the text does not say which experiment. For orientation: Surface plasmon resonance follows binding to a sensor surface in real time, without labels.

For assay [3] the target is unchanged. Briefly: Biacore 3000, 7A8 captured on anti-mouse antibody, fibronectin injected at 15 nM-500 nM, 1:1 Langmuir fit.
Assay [4] shares this target. Briefly: SPR, Biacore 3000, antibody captured on anti-mouse antibody on CM-5 chip, fibronectin in solution, 1:1 Langmuir fit, two experiments; upper end of the range from the two independent experiments; the text does not say which experiment.

Results on 1 molecule are retold here after patent publication US20160024194A1.

B1: 7A8 monoclonal antibody produced by hybridoma PTA-120971 (antibody, V domains shown)
VH: QVQLRESEPGLVAPSRSLSITCTVSGFSLTSYAVSWVRQPPGKGLEWLGVIWTGGGTNYNSALKSRLSISKDNSKNQVFLKMNSLQTDDTARYYCARYSNLYYAMDYWGQGTSVTVSS
VL: DIVMTQSQKFMSTSVGERVSITCKASQNVGTNVAWYQQKAGQSLELLIYGASNRHTGVPDRFTGSGSGTDFTLTITNVQSEDMTNYFCEQYRSYPLTFGGGSKLEIK
The Kd is a measure of binding affinity in units of concentration. A low value points to higher affinity. Consider B1, for which the Kd in assay [1] was found to be 7.26 nM; in assay [2] it was 2.8 nM; in assay [3], 2.8 nM; in assay [4] it was 7.26 nM.
